Measurements reported in patent US20240398899A1 (priority 2021, published 2024).

Tests used:
Assay type in all cases: cell-based, human
SH-SY5Y neuronal cells = test: Mitochondrial membrane potential against MPP+ iodide damage, JC-1 assay; details: MPP+ iodide 1 mM; for Mitochondrial membrane potential: red/green fluorescence ratio
Experimental: The plated cells were incubated overnight in 5% CO2 incubator at 37° C. After 24 h, cells were treated with concentrations of recombinant lectin protein having SEQ ID NO: 1 ranging from 1 μg/ml-50 μg/ml for 24 h. After 24 h of treatment, cells were exposed to damage (MPP+ iodide 1 mM) for 24 h. […] Untreated cells were included as control. Cells treated with Deprenyl served as positive control. After MPP+ iodide exposure, the protective effect of recombinant lectin protein having SEQ ID NO: 1 on mitochondrial membrane potential was assessed by JC-1 assay as follows; after incubation, the supernatants were discarded and 100 μl of JC1-dye solution (prepared by diluting 1 mM DMSO stock in to 10 μM in 1×PBS) was added to each well. The cells were then incubated with the dye in CO2 incubator at 37° C. for 15 min. After 15 min of incubation, the supernatant was removed, and the cells were washed twice with 1×PBS (phosphate buffer saline). 100 μl of 1×PBS was finally added to each well. Red fluorescence (excitation 550 nm, emission 600 nm) and green fluorescence (excitation 485 nm, emission 535 nm) were measured using Biotek Synergy HT plate reader. The mitochondrial membrane potential (Δψm) was calculated as the ratio of intensity of red fluorescence to intensity of green fluorescence described as follows: • Δψm=Intensity of red fluorescence/Intensity of green fluorescence • The percentage increase/restoration in Mitochondrial Membrane Potential against MPP+ iodide damage was calculated as:
[formula] • Where X=Δψm corresponding to SEQ ID NO: 1+ MPP+ iodide treated cells • R=Δψm corresponding to control cells (MPP+ iodide damage alone)

MPO = test: Alzheimer's biomarker multiplex analysis, scopolamine-damaged SH-SY5Y; details: Scopolamine (4 mM)
Experimental: (§1) After overnight incubation as in the previous examples, cells were treated with recombinant lectin protein having SEQ ID NO: 1 at different concentrations ranging from 0.001 μg/ml-1 μg/ml for 24 h for Parkinson disease and 0.01 μg/ml-25 μg/ml for 24 h for Alzheimer's disease. • Parkinson Disease: After 24 h of pre-treatment with recombinant lectin protein having SEQ ID NO: 1, cells were exposed (MPP+) for another 24 h. Cells treated with MPP+Iodide were included as Control. […] The cells treated with Galantamine were included as positive Control.
(§2) The levels of markers were determined by multiplex analysis as: Cell culture supernatants were diluted (1:2) with Calibrator Diluent. 50 μl of standard or sample was added per well. 50 μl of the microparticle cocktail was added to each well of the microplate and covered with a foil plate sealer. The plate was incubated for 2 hours at room temperature on a horizontal orbital microplate shaker. The plate was washed using a magnetic device designed to accommodate a microplate. Washing was done by applying the magnet to the bottom of the microplate, allowing 1 minute before removing the liquid, filling each well with wash buffer (100 μl) and allowing 1 minute before removing the liquid again. 50 μl of diluted Biotin-Antibody Cocktail was added to each well. Covered the plate with a foil plate sealer and incubated for 1 hour at room temperature on the shaker. Repeated the wash step. 50 μl of diluted Streptavidin-PE was added to each well. The plate was securely covered with a foil plate sealer and incubated for 30 minutes at room temperature on the shaker. Repeated the wash step. The microparticles were resuspended by adding 100 μl of Wash Buffer to each well. The plate was incubated for 2 minutes on the shaker and read within 90 minutes using Magpix® multiplex machine. Levels of biomarkers for Parkinson's and Alzheimer's disease were estimated using Magpix® multiplex machine.
(§3) For Alzheimer's disease the percent modulation in each sample was determined as follows: […]

b-NGF = test: as above; details: Scopolamine (4 mM)
Experimental: as §1, §2, §3

RAGE = test: as above; details: Scopolamine (4 mM)
Experimental: as §1, §2, §3

B1: SEQ ID NO: 1: variant of the S. rolfsii lectin amino acid sequence (reported as Rec-2 in WO2010/095143) (protein)
chain: TYKITVRVYQTNPDAFFHPVEKTVWKYANGGTWTITDDQHVLTMGGSGTSGTLRFHADNGESFTATFGVHNYKRWCDIVTNLAADETGMVINQQYYSQKNREEARERQLSNYQVKNAKGRNFQIVYTEAEGNDLHANLIIG
% Increase in Mitochondrial potential (w.r.t. control) (SH-SY5Y neuronal cells; 1 μg/mL): 22.7%
Mitochondrial membrane potential (SH-SY5Y neuronal cells; 1 μg/mL): 2.3
% Increase in Mitochondrial potential (w.r.t. control) (SH-SY5Y neuronal cells; 5 μg/mL): 86.6%
Mitochondrial membrane potential (SH-SY5Y neuronal cells; 5 μg/mL): 3.4
% Increase in Mitochondrial potential (w.r.t. control) (SH-SY5Y neuronal cells; 10 μg/mL): 115.9%
Mitochondrial membrane potential (SH-SY5Y neuronal cells; 10 μg/mL): 4
% Increase in Mitochondrial potential (w.r.t. control) (SH-SY5Y neuronal cells; 25 μg/mL): 84.7%
Mitochondrial membrane potential (SH-SY5Y neuronal cells; 25 μg/mL): 3.4
% Increase in Mitochondrial potential (w.r.t. control) (SH-SY5Y neuronal cells; 50 μg/mL): 77.5%
Mitochondrial membrane potential (SH-SY5Y neuronal cells; 50 μg/mL): 3.3
% Change of Biomarkers markers (wrt Control) MPO (MPO; 0.01 μg/mL): 1.7%
% Change of Biomarkers markers (wrt Control) MPO (MPO; 0.1 μg/mL): −64%
% Change of Biomarkers markers (wrt Control) MPO (MPO; 1 μg/mL): −45.9%
% Change of Biomarkers markers (wrt Control) MPO (MPO; 10 μg/mL): 0%
% Change of Biomarkers markers (wrt Control) MPO (MPO; 25 μg/mL): 0%
% Change of Biomarkers markers (wrt Control) b-NGF (b-NGF; 0.01 μg/mL): 0%
% Change of Biomarkers markers (wrt Control) b-NGF (b-NGF; 0.1 μg/mL): 0%
% Change of Biomarkers markers (wrt Control) b-NGF (b-NGF; 1 μg/mL): −9%
% Change of Biomarkers markers (wrt Control) b-NGF (b-NGF; 10 μg/mL): 41.1%
% Change of Biomarkers markers (wrt Control) b-NGF (b-NGF; 25 μg/mL): 88.9%
% Change of Biomarkers markers (wrt Control) RAGE (RAGE; 0.01 μg/mL): −19.3%
% Change of Biomarkers markers (wrt Control) RAGE (RAGE; 0.1 μg/mL): 0%
% Change of Biomarkers markers (wrt Control) RAGE (RAGE; 1 μg/mL): −19.3%
% Change of Biomarkers markers (wrt Control) RAGE (RAGE; 10 μg/mL): 16.3%
% Change of Biomarkers markers (wrt Control) RAGE (RAGE; 25 μg/mL): −3%
